Experimental findings from the supplement of paper PMC7877785 are described below.

± gives the uncertainty stated by the source.

The series in a line: self-splicing fitness, log relative to wild type (ln ratio); higher = more splicing; Tetrahymena group I intron in knt gene, E. coli kanamycin selection, DiMSum; sequences stand for … in CUCUCU…GGAGGGAAAAGUUAUCAGGCAUGCACCUGGUAGCUAGUCUUUAAACCAAUAGAUUGCAUCGGUUUAAAAGGCAAGACCGUCAAAUUGCGGGAAAGGGGUCAACAGCCGUUCAGUACCAAGUCUCAGGGGAAACUUUGAGAUGGCCUUGCAAAGGGUAUGGUAAUAAGCUGACGGACAUGGUCCUAACCACGCAGCCAAGUCCUAAGUCAACAGAUCUUCUGUUGAUAUGGAUGCAGUUCACAGACUAAAUGUCGGUCGGGGAAGAUGUAUUCUUCUCAUAAGAUAUAGUCGGACCUCUCCUUAAUGGGAGCUAGCGGAUGAAGUGAUGCAACACUGGAGCCGCUGGGAACUAAUUUGUAUGCGAAAGUAUAUUGAUUAGUUUUGGAGUACUCGUGGUCG
The gist of the method:
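Pooled colonies went to amplicon sequencing on an Illumina HiSeq 2500 after six replicate transformations. The plates were LB agar with 100 μg/mL carbenicillin, 50 μM IPTG and 0.2% rhamnose, with or without 25 μg/mL kanamycin, incubated overnight at 37°C or 30°C. The E. coli BL21(DE3) library had all eight P1ex-region intron nucleotides randomised, the intron placed in the knt kanamycin-resistance gene on pET-22b(+). DiMSum fitness is the error-weighted combination of replicate fold changes, kanamycin against none, normalised to wild type.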

As for CGUUAGCAAUAUUACGAGUA, the “self-splicing fitness (ln)” value is -3.68 ± 0.37 (30 °C) and -2.67 ± 0.36 (37 °C). Turning to UCGUAGCAAUAUUACGCAUU, the “self-splicing fitness (ln)” value (30 °C) is -3.24 ± 0.23 and the “self-splicing fitness (ln)” value (37 °C) was -1.84 ± 0.15. With AGAAAGCAAUAUUACGGUGA, the “self-splicing fitness (ln)” value (30 °C) is -0.65 ± 0.12 and the “self-splicing fitness (ln)” value (37 °C) was -0.655 ± 0.14.

For CGUCAGCAAUAUUACGGUGA, the “self-splicing fitness (ln)” value was -2.52 ± 0.11 (30 °C) and -2.81 ± 0.16 (37 °C).

For ACGUAGCAAUAUUACGCGAA, the “self-splicing fitness (ln)” value by setting is: (30 °C) -1.46 ± 0.16; (37 °C) -0.935 ± 0.18. On to AGCAAGCAAUAUUACGGGGA, for which the “self-splicing fitness (ln)” value (30 °C) was -2.7 ± 0.14 and the “self-splicing fitness (ln)” value (37 °C) was -2.1 ± 0.14.

Take GUGCAGCAAUAUUACGGCCG: the “self-splicing fitness (ln)” value is -1.8 ± 0.26 (30 °C) and -1.12 ± 0.3 (37 °C). For CAGUAGCAAUAUUACGGUUC, in that order: -2.7 ± 0.25 and -2.53 ± 0.29.

Take GUUUAGCAAUAUUACGGUAU: the “self-splicing fitness (ln)” value is -2.05 ± 0.14 (30 °C) and 0.286 ± 0.15 (37 °C).

As to CACUAGCAAUAUUACGUUAU, the “self-splicing fitness (ln)” value is -3.42 ± 0.22 (30 °C) and -3.52 ± 0.23 (37 °C). For AGCCAGCAAUAUUACGAAGG, in that order: -3.89 ± 0.41 and -2.92 ± 0.31. As to AAUCAGCAAUAUUACGACGA, the “self-splicing fitness (ln)” value reads like this: (30 °C) -0.461 ± 0.082; (37 °C) 0.386 ± 0.1. On to CUAAAGCAAUAUUACGGAGC, for which the “self-splicing fitness (ln)” value was -3.27 ± 0.31 (30 °C) and -1.2 ± 0.29 (37 °C). For CUGAAGCAAUAUUACGUCGG, in that order: -3.11 ± 0.18 and -1.14 ± 0.16.

AAUAAGCAAUAUUACGACCG: the “self-splicing fitness (ln)” value is -0.621 ± 0.12 (30 °C) and 0.329 ± 0.16 (37 °C). ACACAGCAAUAUUACGGCAG: the “self-splicing fitness (ln)” value is -1.29 ± 0.067 (30 °C) and -0.371 ± 0.082 (37 °C). For CGAAAGCAAUAUUACGCACU, in that order: -0.573 ± 0.11 and 0.0275 ± 0.13. As to UAGAAGCAAUAUUACGGGGG, the “self-splicing fitness (ln)” value (37 °C) was -2.25 ± 0.45. Take AACCAGCAAUAUUACGGGUU: the “self-splicing fitness (ln)” value reads like this: (30 °C) -2.89 ± 0.078; (37 °C) -3.19 ± 0.13. With CGUCAGCAAUAUUACGUCUU, the “self-splicing fitness (ln)” value runs as follows: (30 °C) -2.3 ± 0.14; (37 °C) -0.743 ± 0.11. As to GGUUAGCAAUAUUACGUUGU, the “self-splicing fitness (ln)” value by setting is: (30 °C) -2.02 ± 0.15; (37 °C) -1.71 ± 0.18. In the case of AAAUAGCAAUAUUACGGGUC, the “self-splicing fitness (ln)” value is, setting by setting: (30 °C) -3.56 ± 0.17; (37 °C) -3.1 ± 0.24. With AUGCAGCAAUAUUACGGCGA, the “self-splicing fitness (ln)” value runs as follows: (30 °C) -0.313 ± 0.1; (37 °C) 0.239 ± 0.13. Turning to CAUUAGCAAUAUUACGGCUU, the “self-splicing fitness (ln)” value is, setting by setting: (30 °C) -4.46 ± 0.39; (37 °C) -1.98 ± 0.33. In the same order, the values of CCAAAGCAAUAUUACGCAUA are -3.42 ± 0.15 and -2.38 ± 0.17. As to AACAAGCAAUAUUACGCUAC, the “self-splicing fitness (ln)” value (37 °C) was -3.21 ± 0.4.

For GUUCAGCAAUAUUACGAUAG, the “self-splicing fitness (ln)” value is -2.65 ± 0.2 (30 °C) and -1.53 ± 0.18 (37 °C). Regarding UGGUAGCAAUAUUACGAAGG, the “self-splicing fitness (ln)” value (30 °C) was -2.95 ± 0.28 and the “self-splicing fitness (ln)” value (37 °C) is -1.39 ± 0.24.

For UUUAAGCAAUAUUACGUCCU, the “self-splicing fitness (ln)” value is -1.82 ± 0.2 (30 °C) and -1.09 ± 0.15 (37 °C). For the sequence GCUCAGCAAUAUUACGAUGU, the “self-splicing fitness (ln)” value runs as follows: (30 °C) 0.0549 ± 0.065; (37 °C) -0.345 ± 0.077.

With UUGGAGCAAUAUUACGUUGU, the “self-splicing fitness (ln)” value runs as follows: (30 °C) -4.09 ± 0.36; (37 °C) -1.77 ± 0.26. As for ACGUAGCAAUAUUACGGAUA, the “self-splicing fitness (ln)” value reads like this: (30 °C) -2.48 ± 0.15; (37 °C) -0.584 ± 0.11. In the same order, the values of CCGUAGCAAUAUUACGGACU are -4.02 ± 0.22 and -2.54 ± 0.2. For AGUGAGCAAUAUUACGUAAC, the “self-splicing fitness (ln)” value (30 °C) is -4.68 ± 0.23 and the “self-splicing fitness (ln)” value (37 °C) is -1.67 ± 0.14. UAGGAGCAAUAUUACGUCGA: the “self-splicing fitness (ln)” value runs as follows: (30 °C) -3.16 ± 0.2; (37 °C) -1.55 ± 0.21. Consider UAUGAGCAAUAUUACGCUAU, for which the “self-splicing fitness (ln)” value by setting is: (30 °C) -1.38 ± 0.31; (37 °C) -1.3 ± 0.23. With CUGAAGCAAUAUUACGAUGU, the “self-splicing fitness (ln)” value is, setting by setting: (30 °C) -3.12 ± 0.13; (37 °C) -1.21 ± 0.12. CAGAAGCAAUAUUACGUCGU: the “self-splicing fitness (ln)” value runs as follows: (30 °C) -4.88 ± 0.36; (37 °C) -1.3 ± 0.14.
